Source: patent US20240166745A1 (Eli Lilly, published 2024)

Experiments:
[1] = target: T1, cell membrane-expressed human LAG-3 (human, UniProt P18627 23-525); experiment: flow cytometry, labeled antibody on anti-CD3 activated human PBMC, CD8 T cells, percent of cells bound (mean +/- SEM, n=3)
T1 construct: also called hLAG-3; CD223
T1 sequence: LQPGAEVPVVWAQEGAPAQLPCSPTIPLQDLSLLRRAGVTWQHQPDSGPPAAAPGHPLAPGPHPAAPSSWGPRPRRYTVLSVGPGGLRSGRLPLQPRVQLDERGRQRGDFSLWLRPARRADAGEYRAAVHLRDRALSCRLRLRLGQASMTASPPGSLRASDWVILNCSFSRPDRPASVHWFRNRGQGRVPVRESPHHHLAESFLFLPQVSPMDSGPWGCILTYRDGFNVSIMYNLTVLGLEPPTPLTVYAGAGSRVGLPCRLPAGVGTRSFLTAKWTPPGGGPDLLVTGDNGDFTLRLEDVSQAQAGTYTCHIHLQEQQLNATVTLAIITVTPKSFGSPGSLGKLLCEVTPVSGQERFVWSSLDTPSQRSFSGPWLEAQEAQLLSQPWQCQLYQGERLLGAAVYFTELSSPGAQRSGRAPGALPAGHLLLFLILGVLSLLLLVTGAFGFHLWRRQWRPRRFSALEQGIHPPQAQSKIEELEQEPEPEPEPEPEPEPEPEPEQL
Method: (§1) Cells were incubated with 10-12 point, 3-fold serial dilutions of the respective labeled antibody (Invitrogen #S20026, Invitrogen #C20029), starting at 30 ug/mL, in PBS+2% FCS for 30 minutes at 4° C. and containing the following: CD4 eBioscience #12-0047-42 or Biolegend #344634; CD8 eBioscience #25-0088-42; CD3 eBioscience 56-0038-82 for human cells and BD #557917 for cyno cells; CD33 eBioscience 45-0338-42 for human cells; Live/Dead eBioscience #65-0865-18. After washing thoroughly, cells were processed on a BD Fortessa or Fortessa X20 cytometer, and data were analyzed with Flowjo software (BD Biosciences). Percent of cells bound by the respective antibody is quantified and graphed with Prism (Graphpad, San Diego, CA).

Cynomolgus LAG-3-ECD = target: T2, Cynomolgus LAG-3-ECD (cynomolgus); experiment: SPR (Biacore T200), antibody captured on PrismA chip, ECD as analyte, 37° C.
T2 construct: as printed it starts with the N-terminal leader (MWEAQ...) and ends with a His tag; also called Cynomolgus LAG-3 ECD-His
T2 chain: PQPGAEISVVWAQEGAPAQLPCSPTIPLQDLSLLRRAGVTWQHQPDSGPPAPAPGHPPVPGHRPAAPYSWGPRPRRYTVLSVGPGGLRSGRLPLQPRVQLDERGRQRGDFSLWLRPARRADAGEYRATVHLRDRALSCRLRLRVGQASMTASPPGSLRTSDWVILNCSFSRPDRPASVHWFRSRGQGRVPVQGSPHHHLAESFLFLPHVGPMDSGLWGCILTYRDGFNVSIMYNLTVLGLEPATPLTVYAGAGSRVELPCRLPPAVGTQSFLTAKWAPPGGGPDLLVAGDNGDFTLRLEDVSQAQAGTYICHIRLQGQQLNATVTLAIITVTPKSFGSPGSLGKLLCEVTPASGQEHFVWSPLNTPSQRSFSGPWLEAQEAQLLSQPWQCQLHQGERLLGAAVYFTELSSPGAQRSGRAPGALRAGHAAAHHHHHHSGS
Method: (§2) A Biacore® T200 (Cytiva, Marlborough, MA) was used to measure the binding kinetics and affinities of the LAG-3 antibody to the LAG-3 soluble extracellular domain (ECD) and the bispecific antibody to soluble LAG-3-ECD and PD-1-ECD (human: Sino Biologicals, Cat #10377-H08H; cynomolgus: Sino Biologicals, Cat #90311-C08H) by surface plasmon resonance. Samples were diluted in HBS-EP+ (10 mM Hepes, 150 mM NaCl, 3 mM EDTA, 0.05% Tween-20, pH 7.6) (Teknova Cat #H8022) with 5 g/L of BSA (Jackson ImmunoResearch Cat #001-000-161) running buffer. PrismA Series S Sensor chip (Cat #29650263) is purchased from Cytiva.
(§3) Binding was evaluated using multi-cycle kinetics by an antibody capture method. Each cycle was performed at either 37° C. or 25° C. at a flow rate of 10 μL/min for antibody capture to the PrismA chip and 100 μL/min for analyte association (with 120 sec contact time) and dissociation (900 sec). Each cycle consisted of the following steps: injection of bispecific antibody at 1 μg/mL in HBS-EP+ targeting Rmax values of 125 RU (LAG-3 arm), 294 RU (PD-1 arm) and 63 RU (LAG-3 antibody) on flow cell, injection of analyte in HBS-EP+(concentration range of 62.5 nM to 0.25 nM by two-fold serial dilution for both human PD-1-ECD-His (SEQ ID NO: 40) and human LAG-3-His (SEQ ID NO: 42) followed by 900-second dissociation phase, and regeneration using 10 μL of 10 mM glycine hydrochloride, pH 1.5 over a 60-second contact time utilizing a 10 μL/min flow rate. All analyte concentrations were determined utilizing monomeric molecular weight (MW) values. Association rates (kₒₙ) and dissociation rates (koff) for LAG-3-ECD and PD-1-ECD were evaluated using double referencing by flow-cell one reference subtraction in addition to 0 nM blank subtraction and fit to “1:1 (Langmuir) binding” model in the BIAevaluation software version 4.1. The dissociation constant (KD) was calculated from the binding kinetics according to the relationship KD=Koff/Kₒₙ. Stoichiometry=[RUₘₐₓ/RUcaptured]/[MWanalyte/MWantibody] where MWAntibodyA is 150 kDa. Values are reported as mean±standard deviation.

Human LAG-3 ECD-His = target: T3, Human LAG-3 ECD-His (human, UniProt P18627 23-449); experiment: as above
T3 construct: Soluble analyte in SPR; the entry includes linker and His tag; also called human LAG-3-His
T3 sequence: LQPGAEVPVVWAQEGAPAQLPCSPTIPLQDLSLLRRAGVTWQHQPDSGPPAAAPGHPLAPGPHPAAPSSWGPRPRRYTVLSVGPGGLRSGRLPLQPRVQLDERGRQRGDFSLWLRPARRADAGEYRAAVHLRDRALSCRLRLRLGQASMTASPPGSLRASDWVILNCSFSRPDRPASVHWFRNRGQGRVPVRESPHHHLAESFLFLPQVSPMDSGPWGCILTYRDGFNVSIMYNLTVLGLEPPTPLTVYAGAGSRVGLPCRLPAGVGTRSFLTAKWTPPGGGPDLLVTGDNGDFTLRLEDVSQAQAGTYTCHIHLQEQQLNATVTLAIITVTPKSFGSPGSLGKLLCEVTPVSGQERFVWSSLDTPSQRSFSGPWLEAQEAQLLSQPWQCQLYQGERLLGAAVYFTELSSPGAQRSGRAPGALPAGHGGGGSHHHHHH
Method: as §2, §3

[2] = target: T1, cell membrane-expressed human LAG-3; experiment: flow cytometry, labeled antibody on anti-CD3 activated human PBMC, CD4 T cells, percent of cells bound (mean +/- SEM, n=3)
Method: as §1

[3] = target: T4, cell surface cynomolgus monkey LAG-3 (cynomolgus); experiment: flow cytometry, labeled antibody on anti-CD3 activated cynomolgus PBMC, CD8 T cells, percent of cells bound (mean +/- SEM, n=3)
T4 construct: whole, on cells
Method: as §1

[4] = target: T4, cell surface cynomolgus monkey LAG-3; experiment: flow cytometry, labeled antibody on anti-CD3 activated cynomolgus PBMC, CD4 T cells, percent of cells bound (mean +/- SEM, n=3)
Method: as §1

EC50 [1]: 3.4 ng/mL
Kd (Cynomolgus LAG-3-ECD): 0.038 nM
koff (Cynomolgus LAG-3-ECD): 0.0042 s⁻¹
kon (Cynomolgus LAG-3-ECD): 1.1e+08 M⁻¹ s⁻¹
Kd (Human LAG-3 ECD-His): 1 nM
koff (Human LAG-3 ECD-His): 0.16 s⁻¹
kon (Human LAG-3 ECD-His): 1.5e+08 M⁻¹ s⁻¹
EC50 [2]: 8.7 ng/mL
EC50 [3]: 6.5 ng/mL
EC50 [4]: 0.0105 µg/mL
B1: Antibody E (antibody, V domains shown)
VH: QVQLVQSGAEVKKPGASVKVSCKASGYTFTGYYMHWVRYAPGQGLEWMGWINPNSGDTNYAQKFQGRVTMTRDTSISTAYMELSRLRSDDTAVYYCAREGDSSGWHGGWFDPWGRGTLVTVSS
VL: DIVMTQTPLSLPVTPGEPASISCRSSQSLLDSAEGSTYLDWFLRKPGDSPQLLIYTLSYRASGVPDRFSGSGSGTDFTLKISRVEAEDVGVYYCMQRVEFPYTFGQGTKVEIKR
notes: Monospecific LAG-3 antibody; also called human LAG-3 Antibody E
